The data set concerns the molecule itself. Nature of the data set: X-ray crystal structure of CD81-LEL.

B1: CD81-LEL (large extracellular loop of human CD81, amino acids 113-201) with C-terminal His-tag (receptor)
chain: FVNKDQIAKDVKQFYDQALQQAVVDDDANNAKAVVKTFHETLDCCGSSTLTALTTSVLKNNLCPSGSNIISNLFKEDCHQKIDDLFSGKHHHHHH
notes: Made in E. coli as a fusion with S. aureus Protein A and released by protease (thrombin) cleavage; it forms a homodimer in the crystal, with two chains per asymmetric unit; also called LEL-(His)6; hCD81-LEL
Regarding B1, the binding result is reported as “binds”.

These data come from patent publication US7252958 (Novartis, dated 2007).
